Sequences and labels used below:
B1: CPEB3 Ribozyme (parent)
chain: UAACAGGGGGCCACAGCAGAAGCGUUCACGUCGCAGCCCCUGUCAGAUUCUGGUGAAUCUGCGAAUUCUGCUGUAUAUCUC

The text below walks through data of the RNAGym collection of RNA variant scans (doi:10.1093/nar/gkz1192).

The variants in this series derive from B1. Nature of the series: self-cleavage, relative activity (ratio to wild type); higher = more cleavage; in vitro, sequencing. In short, it runs like this: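 For each CPEB3 ribozyme variant, relative activity is its cleaved/total read fraction divided by the unmutated ribozyme's. Barcoded error-prone PCR libraries were transcribed by T7 RNA polymerase (5 hours, 37°C) and held in DNase I for 15 min before an EDTA stop, with cleavage occurring throughout. Template-switching reverse transcription and Illumina sequencing were used to read the RNAs. A 5-read minimum applied, and results are the mean of three batches.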
In the case of A20G A47C, the self-cleavage was 0.44. In the case of A15U C38U, the self-cleavage amounted to 0.67. For G10A A77U, the self-cleavage is 0.04. Turning to U76G C81A, the self-cleavage worked out at 1.14. Take A15G U66C: the self-cleavage stood at 0.37. Consider A3C A5G, for which the self-cleavage was determined as 0.62.

As to U41A U78A, the self-cleavage was 0.25. For the variant A15G U43G, the self-cleavage stood at 0.28. Turning to A2G U26C, the self-cleavage amounted to 0.4. Take A2G U26G: the self-cleavage was determined as 0.18. With A21U U76C, the self-cleavage amounted to 0.27. For C12A C62A, the self-cleavage was 0.71. In the case of U76A U80A, the self-cleavage stood at 1.17. For U48A U49A, the self-cleavage is 0.38. As for U48A U49G, the figure is 0.21.

On to G9A U80C, for which the self-cleavage was 0.23. Then A3G C27U, with 0.53; and U51A U69A, with 0.64.

A5G A21U: the self-cleavage turned out to be 0.33.

With U49A U80C, the self-cleavage is 0.69.

A45G G55U: the self-cleavage came out at 0.4. U26C C27U: the self-cleavage amounted to 0.27.

With U31G U60C, the self-cleavage amounted to 0.31. With G36U G63A, the self-cleavage was 0.12. As for A5C G63C, the figure is 0.95. Consider C29G G33U, for which the self-cleavage was 0.09.

In the case of A64U C81A, the self-cleavage came out at 0.42.

As for C39U U54A, the self-cleavage was 0.95.

Take A13G U80C: the self-cleavage amounted to 1.03. C62G A64C: the self-cleavage was 0.19. As to A15G A18U, the self-cleavage was 0.26. As for C27G, the figure is 0.28; as for C23A U41A, 0.35. Take A15G C23G: the self-cleavage was determined as 0.42. Consider G8U U31A, for which the self-cleavage was found to be 0.18. As for A3U C17U, the self-cleavage came out at 0.5.

Regarding A2G G30U, the self-cleavage was 0.69.

As for C38U G55U, the self-cleavage turned out to be 0.8. As for A35G U66C, the figure is 1.17. In the case of U72C C79A, the self-cleavage is 1.3.

As for A5C C29U, the self-cleavage was 0.42. As for U78G, the self-cleavage amounted to 1.1. Take A3G G46A: the self-cleavage came out at 0.13. As to U1A C81U, the self-cleavage came out at 1.11. Take G24C U54C: the self-cleavage turned out to be 0.14. Then U25A C34A, with 0.4; and C29G U43C, with 0.3; and A5U A15C, with 1.18.

Take G10U C50U: the self-cleavage was 0.17. Turning to A21G A45U, the self-cleavage was found to be 0.32. For the variant G33C U67A, the self-cleavage was found to be 0.17.

Regarding A28U U43C, the self-cleavage was determined as 0.41. For A13G U43C, the self-cleavage came out at 0.49. As to G7U A21G, the self-cleavage was 0.31.

Consider U41C C59A, for which the self-cleavage is 0.27. As for A20U A77G, the figure is 0.39; as for U51G U69G, 0.49.

As for A15U C50G, the self-cleavage came out at 0.26. Then A3U A5U, with 1.18. Then C4U U69C, with 0.86; and U25A U41A, with 0.44. As for U25A U41C, the figure is 0.28; as for A18U C23G, 0.22. Consider A18C U51A, for which the self-cleavage is 0.42. As for C59G U66C, the self-cleavage amounted to 0.19. For the variant U26C G55C, the self-cleavage was found to be 0.33. For U67C U72C, the self-cleavage was 0.29. Consider U25C C79G, for which the self-cleavage was 0.26. As for U1A G7A, the self-cleavage amounted to 0.1. Turning to A5C U51C, the self-cleavage came to 0.6.

U25C G70C: the self-cleavage was determined as 0.11.

Consider A18G U43G, for which the self-cleavage was determined as 0.36. Turning to A28C G61C, the self-cleavage came out at 0.19. U51C U69G: the self-cleavage worked out at 0.56.

On to C39A U51C, for which the self-cleavage worked out at 0.34. For A2U C50U, the self-cleavage is 0.79. For U43A A57G, the self-cleavage was found to be 1.05. Take C40U A57C: the self-cleavage stood at 0.46. Take C12U G24C: the self-cleavage stood at 0.16. In the case of G33A, the self-cleavage turned out to be 0.28.

On to A57G U60A, for which the self-cleavage stood at 0.4. Then G33A A35U, with 0.21.

On to A13G A56U, for which the self-cleavage came to 0.42.

With G42C U72C, the self-cleavage came to 0.21. Regarding G24U U51C, the self-cleavage was determined as 0.2. C62A U80A: the self-cleavage was 0.1. As to A21G C68G, the self-cleavage amounted to 0.2. Consider A45G U78G, for which the self-cleavage turned out to be 0.81. Regarding U49C G70A, the self-cleavage amounted to 0.44.

On to G7C G9A, for which the self-cleavage amounted to 0.23. For C44A U48C, the self-cleavage is 0.32. Regarding C39A U69G, the self-cleavage was found to be 0.14. Consider C14G U66C, for which the self-cleavage was determined as 0.29. In the case of G9U U76A, the self-cleavage stood at 0.39. Then A18U U72A, with 0.19. A3C U26A: the self-cleavage was determined as 1.2. Take A2C U26C: the self-cleavage is 0.55. For A21G U41A, the self-cleavage was 0.3. Turning to A18C U41A, the self-cleavage turned out to be 0.32. A13G U72G: the self-cleavage amounted to 0.46. Consider C27A G46U, for which the self-cleavage stood at 0.18.

Regarding C11A A18U, the self-cleavage is 0.43. For C44U U58C, the self-cleavage is 0.28. With A21U C38U, the self-cleavage was 0.29.

Turning to C44U U80A, the self-cleavage came out at 0.46. For the variant G10C U78A, the self-cleavage was determined as 0.09.

As for C50G G61A, the self-cleavage was determined as 0.27. As to U51G G63A, the self-cleavage amounted to 0.98. For A35C U74C, the self-cleavage stood at 1.17.

For the variant A5U C17U, the self-cleavage was 0.73. Consider A5U U51G, for which the self-cleavage was 1.16. With G9C U60A, the self-cleavage worked out at 0.15. On to C12U U43C, for which the self-cleavage came out at 1.11.

For the variant G33C U48C, the self-cleavage was determined as 0.44. In the case of A56G C62A, the self-cleavage came out at 0.23. As for G22A A28G, the self-cleavage amounted to 0.4. For G9U U43G, the self-cleavage is 0.12. As for A5G A35C, the figure is 0.85; as for A5G A35G, 1.18. Then U26A G63U, with 0.87.

Consider U26A G63A, for which the self-cleavage was 0.74. For the variant A15C A45G, the self-cleavage was determined as 0.88. For the variant G8U C59U, the self-cleavage was found to be 0.1.

With G30U U41C, the self-cleavage is 0.27. Turning to A56G U74C, the self-cleavage came to 1.12. Take G9A C37U: the self-cleavage amounted to 0.15. Regarding C32A G52C, the self-cleavage is 0.1. On to G10U U49A, for which the self-cleavage was 0.31.

For C29U G52A, the self-cleavage is 0.46. With U1C U43C, the self-cleavage amounted to 0.57.

As to U41C U43C, the self-cleavage was determined as 0.46. For the variant U31C A45G, the self-cleavage came to 0.52. Regarding A3C U58C, the self-cleavage came out at 0.4. Consider A2C A28G, for which the self-cleavage is 0.51. Consider U60A U69C, for which the self-cleavage turned out to be 0.34. With U31A C79U, the self-cleavage came out at 0.48. As for A57G U66G, the self-cleavage is 0.53. In the case of C27U C37U, the self-cleavage was found to be 0.2. Regarding C11G U31C, the self-cleavage amounted to 0.22. Consider U1C A15G, for which the self-cleavage stood at 0.6. Then G24C A28G, with 0.41; and C68U A75G, with 0.67. Take A3U A77G: the self-cleavage amounted to 1.04. As to A13G C40U, the self-cleavage came out at 0.76. On to U1C C23U, for which the self-cleavage worked out at 0.47.

Regarding G7C A13U, the self-cleavage was 0.26. Consider G52A U74C, for which the self-cleavage was found to be 1.26. Consider A20C, for which the self-cleavage came out at 0.3. As for A21U C27U, the figure is 0.14; as for U26C C32U, 0.16. With A15G A47U, the self-cleavage is 0.64. On to C62G U72A, for which the self-cleavage stood at 0.27. Consider A3C U49C, for which the self-cleavage amounted to 0.86.

C37U A75G: the self-cleavage amounted to 0.59. Turning to A3U C27U, the self-cleavage stood at 0.6. Consider A65U G73U, for which the self-cleavage is 0.57. Take A20U C81U: the self-cleavage turned out to be 0.32. In the case of A15G U60C, the self-cleavage was 0.33. Consider A28G G55A, for which the self-cleavage is 0.33. Turning to G16U A47U, the self-cleavage came out at 0.16. Take G10A U48C: the self-cleavage turned out to be 0.2. As for A18U A57G, the figure is 0.37; as for A3C A35G, 1.21; as for A35U U58G, 0.15.

A20G A65U: the self-cleavage came out at 0.29. Consider G7A A28C, for which the self-cleavage was 0.2. For the variant C37U C44U, the self-cleavage was found to be 0.13.
